Experiment [1] addresses T1, ARVCF peptide (PQPVDSWV-COOH) (Homo sapiens, UniProt O00192).
T1 construct: made in house; host or cells: E. coli
Nature of the experiment: Surface plasmon resonance (SPR, BIAcore) analysis of motif binding, ARVCF peptide. From the text: (§1) Using semi-automated methods, the phage display library was sorted using an eight-residue motif (SEQ ID NO: 148) corresponding to the ARVCF C-terminus. […] The maximal motif/affinity concentrations are indicated. In B, C and F, the on and off rates are also shown on the left and right sides, respectively. […] After four rounds of sorting, two clones with high affinity were identified to the ARVCF peptide motif. ePDZ-a (SEQ ID NO: 149) and ePDZ-b (SEQ ID NO: 150) are thus (referred to as “enhanced PDZ-a” and “enhanced PDZ-b” or simply “ePDZ-a” and “ePDZ-b” respectively) potential affinity clamp candidates.
These two clones were characterized as soluble proteins.
One method to improve affinity of the affinity clamp is to improve the interaction interface of the enhancer domain (e.g. the FN3 domain). […] The two second-generation variants, ePDZ-b1 (SEQ ID NO: 151) and ePDZ-b2 (SEQ ID NO: 143), were prepared as protein samples and their binding properties were analyzed using SPR. […] The affinity enhancement primarily originated from reduced dissociation rates.
A disulfide-constrained peptide was used as an enhancer domain. A peptide-PDZ affinity clamp was designed in which the diversified peptide segment was N-terminal connected to the circularly permutated PDZ domain (cpPDZ) described above. (See, FIG. F1 showing an affinity clamp constructed with Cys-constrained peptide as an enhancer domain in which (A) is a schematic drawing of the affinity clamp. Note that the peptide is attached to the N-terminus of the interaction domain. (B, C) are saturation curves of the parent PDZ (B) and peptide-PDZ Affinity Clamp (C) determined using surface plasmon resonance (SPR). SPR experiments were performed in the equilibrium mode, and the SPR response is plotted as a function of the concentration of the target peptide. The target peptide fused to the yeast SUMO protein was used in these measurements. The curves show the best fit of the 1:1 binding model to the data. The Kd values are also shown.)

Experiment [2] addresses T2, δ-catenin peptide (PASPDSWV-COOH) (Homo sapiens, UniProt Q9UQB3).
T2 construct: yeast SUMO (N); made in house
Nature of the experiment: Surface plasmon resonance (SPR, BIAcore) analysis of motif binding, δ-catenin peptide. The settings on record: for Kd: SPR.
Excerpt: as §1
The binding specificity of the ePDZ clones was investigated. In addition to the ARVCF motif, wild-type erbin PDZ also binds to the C-terminus of δ-catenin with a low μM Kd. The two sequences differ only at positions outside the core recognition motif, DSWV (SEQ ID NO: 69) —COOH (Table 2). The affinity enhancement of ePDZ-a was similar for both targets. Remarkably, the ePDZ-b clone had very weak binding to δ-catenin, similar to the wild-type PDZ domain, showing that ePDZ-b discriminates between the two targets by ˜200 fold. Equally importantly, ePDZ-b discriminates amino acids outside the DSWV-COOH motif shared by the two peptides (Table 2), and thus, it expanded the size of the target motif. The improved specificity is consistent with the molecular affinity clamp design where the enhancer domain binds to the motif surface presented on the PDZ domain and thus can “read” the motif sequence (FIG. C2).
A general note: In SPR one partner is held on a chip, and binding of the other changes the refractive index at the surface.

In experiment [3] the test system is SUMO-ARVCF fusion protein. Nature of the experiment: Western blotting of SUMO-ARVCF fusion protein in E. coli lysate. In kind it is binding. Particulars: E. coli lysate containing 5 nanograms SUMO-ARVCF. From the text:
The PDZ-FN3 affinity clamps functioned well in Western blotting and in immunoprecipitation (pull down) assays. […] Lane 6 is a negative control for the secondary, anti-FLAG antibody. In FIG. C6B, pull-down (immunoprecipitation), biotinylated ePDZ's and streptavidin (SA)-magnetic beads were used. The input (I), unbound (U), wash (W) and bound (B) fractions were separated with SDS-PAGE and detected with CBB. Note that this is not Western blotting, which would have given higher sensitivity and specificity. […] Note that most of nonspecific binding is due to the SA-magnetic beads (lane 13). […] It is noted that the relatively low recovery of the target in the pull-down assays may be due to the fact that the off-rate was optimized for these clamps (FIG. C3).

Experiment [4] relates to Ala-substituted ARVCF peptide (positions −7 to −4). Nature of the experiment: Alanine-scanning of the ARVCF peptide by SPR. In kind it is binding. The settings on record: positions −7 to −4. How it is done: To complement the library sorting experiments described above, Ala-scanning experiments of the ARVCF peptide were performed. When the goal is to define differences in the ability of ePDZ-a and ePDZ-b1 to recognize the differences between the ARVCF and δ-catenin peptides, only those positions that differ between the two peptides are analyzed.
Consistent with the peptide library sorting results, the ePDZ-b family was sensitive to Ala substitution mutations at all positions between −4 and −7. […] The results are shown in terms of changes in free energy change (ΔG=−RT ln(Kd^mutant/Kd^wild type)). […] The tested positions are −7 to −4 in the ARVCF peptide (PQPVDSWV-COOH; mutated positions are underlined). For each mutant, binding affinity was determined using surface plasmon resonance as described previously for the wild-type ARVCF peptide (69).

The target of experiment [5] is T3, ARVCF peptide (Homo sapiens, UniProt O00192).
T3 construct: made in house; host or cells: E. coli
The experiment can be described thus: IC50 for the ARVCF peptide (Table 4). It is filed as binding.

Where two headings read alike, the source gives them in different places.

B1: ePDZ-a: affinity clamp: circularly permutated erbin PDZ fused to engineered FN3, SEQ ID NO: 149, selected for ARVCF peptide (protein)
chain: MKHHHHHHHHHHSSDYKDDDDKGENLYFQGSPELGFSISGGVGGRGNPFRPDDDGIFVTRVQPEGPASKLLQPGDKIIQANGYSFINIEHGQAVSLLKTFQNTVELIIVREVGNGAKQEIRVRVEKDGGSGGVSSVPTNLEVVAATPTSLLISWDASYYGVSYYRITYGETGGNSPVQEFTVPYSSSTATISGLKPGVDYTITVYAYSDYYGSHHYSPISINYRT
In general, Kd refers to a measure of binding affinity in units of concentration. By IC50 is commonly meant the concentration at which inhibition is half-maximal. Lower therefore signals higher potency. For the molecule B1, the Kd in experiment [1] (Table 2, SPR, read-out: Kd, ARVCF PQPVDSWV) was determined as 56 nM; in experiment [1] (Table 4, SPR, read-out: Kd [nM] ARVCF), 56 ± 6 nM; in experiment [2] (Table 2, read-out: Kd, δ-catenin PASPDSWV), 430 nM; in experiment [2] (Table 4, read-out: Kd [nM] δ-catenin), 429 nM. Also, the koff in experiment [1] (for the ARVCF peptide, SPR) is reported as 1.5 × 10^−2 S^−1. The kon in experiment [1] (for the ARVCF peptide, SPR) is recorded as 2.9 × 10^5 M^−1S^−1. In experiment [1] (ratio of Kd of parent protein (cpPDZFN) for ARVCF to that of the affinity clamp), the “Affinity Enhancement” value worked out at 520. Besides, in experiment [2] (ratio of Kd for δ-catenin to Kd for ARVCF), the “Specificity Index” value is 8. The “detection of target in Western blotting” value in experiment [3] is “detected the target”. The “sensitivity to Ala substitutions of the ARVCF peptide” value in experiment [4] is listed as “much less sensitive to the Ala substitutions”. Besides, it took 40 nM to reach half-maximal inhibition in experiment [5] (IC50).

For the origin of these results see patent US9885050B2, “Molecular affinity clamp technology and uses thereof” (The University of Chicago, priority 2007, dated 2018).
